Measured values published in patent US20150355179.

Tests used:
[1] = tested on: GST-CDKACTH1 labelled with Cy3 (CDKACTH1-Cy3)
[2] = tested on: CDKACT-WWH1 biosensor labelled with Cy3
[3] = tested on: CDKACT-WWH1 biosensor labelled with Cy5
Sequence of CDKACT-WWH1 biosensor labelled with Cy5 (chain, as listed by the source): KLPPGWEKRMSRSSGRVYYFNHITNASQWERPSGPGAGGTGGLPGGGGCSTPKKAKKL

Sequence of unlabelled GST-CDKACTH1 (chain, as listed by the source): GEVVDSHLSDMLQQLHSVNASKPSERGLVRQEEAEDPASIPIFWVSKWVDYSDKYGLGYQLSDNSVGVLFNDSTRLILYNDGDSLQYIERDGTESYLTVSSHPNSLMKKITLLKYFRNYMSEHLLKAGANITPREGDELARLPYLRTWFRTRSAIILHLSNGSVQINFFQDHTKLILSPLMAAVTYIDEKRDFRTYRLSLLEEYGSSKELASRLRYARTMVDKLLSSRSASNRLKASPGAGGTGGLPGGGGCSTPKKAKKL

Row | Substance | radioactive kinase assay (phosphorylation, 30 min at 30 C) (unlabelled GST-CDKACTH1) | real-time fluorescence kinase assay (Cy3 fluorescence) [1] | competition in the fluorescence kinase assay (phosphorylation of CDKACTH1-Cy3) (unlabelled GST-CDKACTH1) | real-time fluorescence kinase assay (Cy3 fluorescence) [2] | real-time fluorescence kinase assay (Cy5 fluorescence) [3] | competition in the fluorescence kinase assay (phosphorylation of CDKACTH1-Cy3) (histone H1)
1 | recombinant CDK1/Cyclin B (GST-CDK1/CIV Cyclin B) | CDKACT-H1 is phosphorylated by GST-CDK2/Cyclin A and GST-CDK1-Cyclin B in a standard kinase assay | CDK1/Cyclin B indeed phosphorylated CDKACTH1, however in the same conditions as CDK2/Cyclin A it did not induce the same response | – | – | – | –
2 | recombinant active CDK2/Cyclin A (GST-CDK2/CIV complexed with His-Cyclin A) | CDKACT-H1 is phosphorylated by GST-CDK2/Cyclin A and GST-CDK1-Cyclin B in a standard kinase assay | Both CDKACTH1 and CDKACTWWH1 report on CDK2/CyclinA activity | histone and unlabelled sensor prevented full phosphorylation of CDKACTH1 | Both CDKACTH1 and CDKACTWWH1 report on CDK2/CyclinA activity, however CDKACTWWH1 yields greater changes in fluorescence enhancement | CDKACTWWH1, reports on CDK2/CyclinA activity, through significant changes in fluorescence enhancement | histone and unlabelled sensor prevented full phosphorylation of CDKACTH1
